Target: recombinant prefusion RV3 F antigen (human respirovirus 3 fusion glycoprotein, prefusion conformation) (human respirovirus 3 (RV3))
Assay: cryo-EM structure

Substance “recombinant prefusion RV3 F antigen (human respirovirus 3 fusion glycoprotein, prefusion conformation) (natural protein)” has a stoichiometry N of 3.

Reference: publication PMC11211449
